Each block holds one molecule with its values, some of them ahead of it.
Assays:
Experiment in all cases: BLI
[1] = molecular target: p52Shc lacking the PTB domain (p52ShcΔPTB), terminally biotinylated
[2] = molecular target: T1, p52Shc lacking SH2 domain (p52ShcΔSH2), terminally biotinylated (biotin, terminal (end not stated))
T1 chain: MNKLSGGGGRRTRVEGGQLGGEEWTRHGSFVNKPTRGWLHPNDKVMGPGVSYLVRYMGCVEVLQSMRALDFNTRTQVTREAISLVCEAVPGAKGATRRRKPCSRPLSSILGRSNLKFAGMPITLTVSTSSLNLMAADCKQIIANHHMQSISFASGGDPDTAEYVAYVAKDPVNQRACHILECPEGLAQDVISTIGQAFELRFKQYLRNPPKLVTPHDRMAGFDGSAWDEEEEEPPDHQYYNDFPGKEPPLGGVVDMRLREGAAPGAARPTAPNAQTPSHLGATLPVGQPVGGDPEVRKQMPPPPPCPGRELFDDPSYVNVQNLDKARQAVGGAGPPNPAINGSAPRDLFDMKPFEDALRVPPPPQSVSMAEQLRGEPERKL

[3] = molecular target: T2, full-length p52Shc, terminally biotinylated (UniProt P29353-2 1-473, biotin, terminal (end not stated))
T2 sequence (looked up): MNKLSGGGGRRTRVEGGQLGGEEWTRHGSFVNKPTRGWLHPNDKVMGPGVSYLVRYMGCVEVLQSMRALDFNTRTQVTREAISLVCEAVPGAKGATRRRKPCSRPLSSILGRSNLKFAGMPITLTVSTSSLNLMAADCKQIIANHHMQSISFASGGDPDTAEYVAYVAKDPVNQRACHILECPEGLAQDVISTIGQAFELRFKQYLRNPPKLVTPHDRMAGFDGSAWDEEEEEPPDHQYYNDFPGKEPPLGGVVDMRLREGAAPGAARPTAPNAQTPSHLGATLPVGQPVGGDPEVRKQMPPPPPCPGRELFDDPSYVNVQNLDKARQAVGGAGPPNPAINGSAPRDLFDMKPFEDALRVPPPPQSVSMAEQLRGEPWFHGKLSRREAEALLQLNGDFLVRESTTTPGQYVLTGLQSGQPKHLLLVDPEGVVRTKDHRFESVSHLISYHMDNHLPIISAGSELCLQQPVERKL

[4] = molecular target: T3, non-phosphorylated full size p52Shc (treated with alkaline phosphatase) (UniProt P29353-2 1-473, biotin, terminal (end not stated))
T3 sequence (looked up): T2 sequence (looked up)

- fold weaker affinity than full-length p52Shc [1]: 10 fold
Molecule: p47^phox::His (not biotinylated) (from UniProt P14598 1-390) (natural protein)

- EC50 [2]: > 50000 nM
- Kd [3]: 200 nM
- Kd [4]: 780 nM
B1: p47^phox::His (not biotinylated) (natural protein, UniProt P14598 1-390, looked up)
chain: MGDTFIRHIALLGFEKRFVPSQHYVYMFLVKWQDLSEKVVYRRFTEIYEFHKTLKEMFPIEAGAINPENRIIPHLPAPKWFDGQRAAENRQGTLTEYCSTLMSLPTKISRCPHLLDFFKVRPDDLKLPTDNQTKKPETYLMPKDGKSTATDITGPIILQTYRAIANYEKTSGSEMALSTGDVVEVVEKSESGWWFCQMKAKRGWIPASFLEPLDSPDETEDPEPNYAGEPYVAIKAYTAVEGDEVSLLEGEAVEVIHKLLDGWWVIRKDDVTGYFPSMYLQKSGQDVSQAQRQIKRGAPPRRSSIRNAHSIHQRSRKRLSQDAYRRNSVRFLQQRRRQARPGPQSPGSPLEEERQTQRSKPQPAVPPRPSADLILNRCSESTKRKLASAV

Reference: publication PMC7478166 (Hepatology (Baltimore, Md.), 2020)
